Measured values reported in patent EP4703474A1, “ANTI-LRRC15 ANTIBODY” (priority 2023, dated 2024).

How the values were obtained:
[1] = tested on: HER2-positive breast carcinoma cell line SUM190PT; experiment: In vivo antitumor effect, SUM190PT subcutaneous transplant model; details: 0.4 mg/kg, tail vein, on Day 32, female SCID mice
Procedure: (§1) The antitumor effects of the antibody-drug conjugates were evaluated by using animal models in which cells of a human tumor cell line had been transplanted into immunodeficient mice, or cells of a mouse tumor cell line had been transplanted into immunocompetent mice. 4 to 6 Week-old SCID mice (CB17/Icr-Prkdc[scid]/CrlCrlj, Jackson Laboratory Japan, Inc.), NSG mice (NOD.Cg-Prkdcscid Il2rgtm1Wjl/SzJ, Jackson Laboratory Japan, Inc.), or B6J mice (C57BL/6J, Jackson Laboratory Japan, Inc.) were habituated for 3 days or more under SPF conditions before experimental use. The mice were fed with sterilized solid feed and given sterilized tap water. The major and minor diameters of the transplanted tumors were measured twice a week with an electronic digital caliper (Mitutoyo Corporation), and the estimated tumor volume was calculated using the following formula. Estimated tumor volume (mm^3) = 1/2 × major diameter (mm) × [minor diameter (mm)]^2 All antibody-drug conjugates were diluted with ABS and administered into the tail vein at doses shown in each Example. In addition, ABS (vehicle) or control hIgG-PBD prepared in Reference Example 4 was administered as the control group, in a similar manner. 5 to 6 Mice were used per group in the experiment. […]

[2] = tested on: Esophageal carcinoma cell line EC-GI-10; experiment: In vivo antitumor effect, EC-GI-10 subcutaneous transplant model; details: 0.4 mg/kg, tail vein, on Day 35, female NSG mice
Procedure: as §1, with “experiment. To analyze the LRRC15 expression in mouse tumor models, immunohistochemical staining of LRRC15 was performed.” for “experiment.”

[3] = tested on: Gastric carcinoma cell line NCI-N87; experiment: In vivo antitumor effect, NCI-N87 subcutaneous transplant model; details: 0.4 mg/kg, tail vein, on Day 10, female SCID mice
Procedure: as §1, with “experiment. To analyze the LRRC15 expression in mouse tumor models, immunohistochemical staining of LRRC15 was performed.” for “experiment.”

B1: H02L01-V1-PBD (conjugate)
heavy: EVQLVESGGGLVQPGGSLRLSCAASGFTFRDYYMAWVRQAPGKGLEWVSSIGFDESRTYYADSVKGRFTISRDDSKNTLYLQMNSLRAEDTAVYYCARHGVSKYSGDNWFAYWGQGTLVTVSSASTKGPSVFPLAPSSKSTSGGTAALGCLVKDYFPEPVTVSWNSGALTSGVHTFPAVLQSSGLYSLSSVVTVPSSSLGTQTYICNVNHKPSNTKVDKKVEPKSCDKTHTCPPCPAPEAAGGPSVFLFPPKPKDTLMISRTPEVTCVVVDVSHEDPEVKFNWYVDGVEVHNAKTKPREEQYNSTYRVVSVLTVLHQDWLNGKEYKCKVSNKALAAPIEKTISKAKGQPREPQVYTLPPSREEMTKNQVSLTCLVKGFYPSDIAVEWESNGQPENNYKTTPPVLDSDGSFFLYSKLTVDKSRWQQGNVFSCSVMHEALHNHYTQKSLSLSPGK
light: DIQMTQSPSSLSASVGDRVTITCKSSQGLLYSGDQKNYLAWYQQKPGKAPKLLIYWASTRQSGVPSRFSGSGSGTDFTLTISSLQPEDFATYYCQQYYDPPYTFGQGTKVEIKRTVAAPSVFIFPPSDEQLKSGTASVVCLLNNFYPREAKVQWKVDNALQSGNSQESVTEQDSKDSTYSLSSTLTLSKADYEKHKVYACEVTHQGLSSPVTKSFNRGEC
[1]
  antitumor effect (estimated tumor volume): antitumor activity higher than that of the vehicle and control hIgG-PBD
[2]
  antitumor effect (estimated tumor volume): antitumor activity higher than that of the vehicle and control hIgG-PBD
[3]
  antitumor effect (estimated tumor volume): antitumor activity higher than that of the vehicle
